Experimental data from patent US20240117061A1 (WUHAN YZY BIOPHARMA, published 2024).

B1: human-mouse chimeric antibody c-mAb1 (antibody, human IgG1, V domains shown)
VH: EVQLQQSGPELVKPGTSVEMSCKASGYTFTDYNIHWVRQRHGESLEWLGYINPNNGVTNFNQKFKGKATLTVNKSSSTAYMELRSLTSDDSAVYYCSSGLFDGYPFPYWGQGTLVTVSA
VL: DIVLTQSPASLVVSLGQRATISCRASKSVSTSGYNYIHWYQQKPGQPPKLLIFLASNLKSGVPARFSGGGSGTDFTLNIHPVEEDDAATYFCQHNRELPYTFGGGTKVEIK
notes: not shown: human IgG1 heavy chain constant region, GenBank No. AK303185.1; human kappa light chain constant region, GenBank No. MG815648.1
B2: mouse monoclonal antibody 211B11H10G5 (antibody, V domains shown)
VH: EVQLQQSGPELVKPGASVKILCKASGYTITDYNMDWVKRSHGKSLEWIGNINPHNGGSIYNQKFKGKATLTVDKSSSTAFMELRSLTSEDTAVYYCARGDATLVLDYWGQGTSLTVSS
VL: DIVLTQSPASLAVSLGQRATISCRASKSVSTSGLSYMHWYQQKPGQPPKVLIYLASNLESGVPARFSGSGSGTDFTLNIHPVEEEDAATYYCQHSRELPPTFGAGTKLELK
notes: detected with anti-mouse IgG; also called Clone 211B11H10G5; BCMA-HC3/BCMA-LC3

Tests used:
[1] = biological target: T1, recombinant human BCMA-his fusion protein (ACRO Biosystem, Cat. No. BCA-H522y) (human, UniProt Q02223 1-54); experiment: competitive ELISA, coated huBCMA-his, competitor APRIL-biotin
T1 construct: extracellular domain; Bought protein; also called huBCMA-his; hu BCMA-his; not shown: His tag
T1 sequence (looked up): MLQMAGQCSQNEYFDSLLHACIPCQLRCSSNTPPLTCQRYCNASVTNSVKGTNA
Description: (§1) The 96-well microplate was treated with 100 μL of 0.5 μg/mL huBCMA-his in PBS and incubated overnight at 4° C. The plate was then washed thrice with PBS washing buffer containing 0.1% of Tween-20 and blocked with 300 μL of PBS containing 1% of BSA for 2 h. 100 μL of each BCMA antibody was added to the plate. […] The plate was incubated at 37° C. for 1 h, and unbound secondary antibody was washed with PBS washing buffer containing 0.1% of Tween-20. The TMB chromogenic solution was added at 100 μL/well. After a 5-min reaction at room temperature, 2 M H₂SO₄ was added at 100 μL/well to terminate the reaction. The microplate was placed on a microplate reader (Molecular Devices, SPECTRA Max plus 384) and the absorbance OD450 value was read at 450 nm wavelength.

[2] = biological target: T2, recombinant human BCMA-mFc fusion protein (human; mouse); experiment: indirect ELISA, coated antigen
T2 construct: also called huBCMA-mFc
T2 chain: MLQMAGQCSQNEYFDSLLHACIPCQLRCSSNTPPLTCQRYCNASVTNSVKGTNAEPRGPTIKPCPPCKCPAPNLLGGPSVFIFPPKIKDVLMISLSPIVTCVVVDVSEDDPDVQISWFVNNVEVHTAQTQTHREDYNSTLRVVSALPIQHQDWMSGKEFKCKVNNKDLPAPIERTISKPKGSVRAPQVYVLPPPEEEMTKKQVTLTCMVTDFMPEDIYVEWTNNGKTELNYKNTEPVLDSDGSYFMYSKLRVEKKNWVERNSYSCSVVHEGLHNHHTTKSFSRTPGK
Description: (§2) Procedures: Human, mouse and monkey BCMA antigens were prepared into 0.5 μg/mL coating solutions with PBS buffer. The coating solutions were added to a microplate at 100 μL/well and incubated at 4° C. overnight. The residual coating solution was discarded before 3% BSA was added at 300 μL/well, and the plate was blocked for 3 h at room temperature. The microplate was washed once with PB ST (PBS containing 0.1% of TWEEN 20) at 300 μL/well. The human-mouse chimeric monoclonal antibodies were serially 3-fold diluted from 10 μg/mL to the 9th concentration. The dilutions were added to the microplate at 100 μL/well. After a 1-h incubation at room temperature, the microplate was washed thrice with PB ST at 300 μL/well. The mouse anti-human IgG Fc antibody [HRP] mAb was 25,000-fold diluted with 1% BSA-PBST and added at 100 μL/well. After another 1-h incubation at room temperature, the microplate was washed thrice with PBST at 300 μL/well and dried. The TMB chromogenic solution was added at 100 μL/well. After a 5-min reaction at room temperature, 2 M H₂SO₄ was added at 100 μL/well to terminate the reaction. The microplate was placed on a microplate reader (Molecular Devices, SPECTRA Max plus 384) and the absorbance OD450 value was read at 450 nm wavelength.

[3] = biological target: T1, recombinant human BCMA-his fusion …; experiment: competitive ELISA, coated huBCMA-his, competitor 83A10-biotin
Description: as §1

[4] = biological target: T3, human BCMA on cells (NCI-H929, U266B1, HEK293 huBCMA) (human, UniProt Q02223 1-184); experiment: flow cytometry on U266B1 cells
T3 construct: whole, on cells; also called cell surface BCMA antigen
T3 sequence (looked up): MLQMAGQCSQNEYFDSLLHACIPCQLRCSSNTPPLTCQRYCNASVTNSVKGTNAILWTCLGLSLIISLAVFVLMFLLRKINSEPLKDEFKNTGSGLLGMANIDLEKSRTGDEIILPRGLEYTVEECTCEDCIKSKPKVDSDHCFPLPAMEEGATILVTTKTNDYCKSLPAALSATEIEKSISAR
Description: (§3) Procedures: The cells were resuspended in PBS, and the cell density was adjusted to 2×10^5 cells/well. Human-mouse chimeric monoclonal antibodies were added to a 96-well plate at 50 μL/well and serially 3-fold diluted from 3000 nM to the 9th concentration. The plate was incubated for 1 h at 4° C. 150 μL of precooled PBS containing 1% of FBS was added into the 96-well plate after the co-incubation with the primary antibody was finished. The mixtures were centrifuged at 300×g for 5 min and the supernatants were discarded. The above procedures were repeated once. The fluorescent secondary antibody PE anti-human IgG Fc (Biolegend, 409304) was added at 80 μL/well. The plate was incubated at 4° C. for 30 min. 150 μL of precooled PBS containing 1% of FBS was added into the 96-well plate after the co-incubation with the secondary antibody was finished. The 96-well plate was centrifuged at 300×g for 5 min and the supernatants were discarded. The above procedures were repeated once. The cells were resuspended in 100 μL of PBS containing 1% of FBS and detected on a flow cytometry (BD Accuri™ C6).

[5] = biological target: T1, recombinant human BCMA-his fusion …; experiment: SPR (Biacore T200), anti-His capture on CM5, 1:1 fit
Description: In this example, the antigen-antibody binding kinetics and affinity were determined by the BIACORE method.
Procedures: The anti-histidine antibody (GE, His capture Kit, Cat. No. 28995056) was conjugated to the Sereis S Sensor Chip CMS to capture the test articles, thus acquiring the binding kinetic and affinity data of the antigen, as an analyte, to the test articles. The initial concentration for detecting the binding of the antigen and the test articles was 10 nM. […] The Start up flushing process (1×HBS-EP+buffer) was performed at least thrice before loading to equilibrate the system. The association and dissociation tendencies between the antigen and the test articles were detected. When the dissociation was completed, a regeneration reagent was loaded for regeneration before the detection of the next concentration was performed. After the detection was finished, the data were fitted by using a 1:1 Binding fitting mode in data analysis software (Biacore T200 Evaluation Software).

[6] = biological target: T1, recombinant human BCMA-his fusion …; experiment: ELISA, coated antigen
Description: Procedures: huBCMA-his and cynoBCMA-his antigens were prepared into 0.5 μg/mL coating solutions with PBS (pH 7.4). The coating solutions were added to a microplate at 100 μL/well and incubated at 4° C. overnight. The residual coating solution was discarded before 3% BSA was added at 300 μL/well, and the plate was blocked for 3 h at room temperature. The microplate was washed once with PB ST at 300 The stock humanized monoclonal antibody solutions were serially 3-fold diluted to the 11th concentration. The dilutions were added to the microplate at 100 μL/well. After a 1-h incubation at room temperature, the microplate was washed thrice with PBST at 300 The HRP-conjugated 6*His, His-Tag antibody was 25,000-fold diluted with 1% BSA-PBST and added at 100 After another 1-h incubation at room temperature, the microplate was washed thrice with PB ST at 300 μL/well and dried. The TMB chromogenic solution was added at 100 μL. After a 5-min reaction at room temperature, 2 M H2504 was added at 100 μL/well to terminate the reaction. The microplate was placed on a microplate reader (Molecular Devices, SPECTRA Max plus 384) and the absorbance OD450 value was read at 450 nm wavelength.

[7] = biological target: T1, recombinant human BCMA-his fusion …; experiment: competitive ELISA, coated huBCMA-his, competitor 83A10-biotin, antibody at 7 µg/mL
[8] = biological target: T3, human BCMA on cells (NCI-H929, U266B1, …); experiment: flow cytometry on NCI-H929 cells; NCI-H929 cells
Description: as §3

[9] = biological target: T3, human BCMA on cells (NCI-H929, U266B1, …); experiment: flow cytometry on NCI-H929 cells
Description: as §3

[10] = biological target: T3, human BCMA on cells (NCI-H929, U266B1, …); experiment: flow cytometry on U266B1 cells; remark: listed apart in the source
Description: (§4) The affinities of the 3 mouse antibodies for cell surface BCMA antigen were assessed using FACS. Materials: cell lines NCI-H929, U266B1, HEK293 cynoBCMA and HEK293; PBS buffer; FBS (fetal bovine serum; Gibco, 10099141); PE goat anti-mouse IgG Fc (Biolegend, 405307). Procedures: The cells were resuspended in PBS to prepare cell suspensions containing 200,000 cells. Mouse BCMA antibodies were added to a 96-well plate at 50 μL/well and serially 3-fold diluted from 3000 nM. The plate was incubated for 1 h at 4° C. 150 μL of precooled PBS containing 1% of FBS was added into the 96-well plate after the co-incubation with the primary antibody was finished. The mixtures were centrifuged at 300×g for 5 min and the supernatants were discarded. The above procedures were repeated once. The fluorescent secondary antibody PE goat anti-mouse IgG Fc was added at 80 μL/well. The plate was incubated at 4° C. for 30 min. 150 μL of precooled PBS containing 1% of FBS was added into the 96-well plate after the co-incubation with the secondary antibody was finished. The mixtures were uniformly mixed with a pipette. The 96-well plate was centrifuged at 300×g for 5 min in a plate centrifuge and the supernatants were discarded. The above procedures were repeated once. The cells were resuspended in 100 μL of PBS containing 1% of FBS and detected on a flow cytometry (BD Accuri™ C6).

[11] = biological target: T4, cynomolgus monkey BCMA on HEK293 cynoBCMA cells (cynomolgus monkey, UniProt A0A2K5UD97 1-183); experiment: flow cytometry on HEK293 cynoBCMA cells; HEK293 cynoBCMA cells
T4 construct: whole, on cells
T4 sequence (A0A2K5UD97 entry or part of it): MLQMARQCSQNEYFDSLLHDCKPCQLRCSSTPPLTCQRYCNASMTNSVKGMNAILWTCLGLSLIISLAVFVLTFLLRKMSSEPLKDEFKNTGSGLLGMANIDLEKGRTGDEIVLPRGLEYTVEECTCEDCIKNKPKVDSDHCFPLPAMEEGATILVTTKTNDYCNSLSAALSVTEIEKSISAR
Description: as §4

[12] = biological target: T3, human BCMA on cells (NCI-H929, U266B1, …); experiment: flow cytometry on NCI-H929 cells; remark: listed apart in the source
Description: as §4

[13] = biological target: T5, recombinant human BCMA-huFc fusion protein (human); experiment: indirect ELISA, coated antigen
T5 construct: also called huBCMA-huFc
Description: as §2, with “PBST” for “PB ST”, “three mouse BCMA” for “human-mouse chimeric monoclonal”, “7th” for “9th”, “HRP goat anti-mouse” for “mouse anti-human”, “IgG” for “IgG Fc”, “antibody” for “antibody [HRP] mAb”

[14] = biological target: T6, recombinant cynomolgus monkey BCMA-huFc (cynomolgus monkey; human); experiment: indirect ELISA, coated antigen
T6 construct: also called cynoBCMA-huFc
T6 sequence (chain, as listed by the source limits assumed): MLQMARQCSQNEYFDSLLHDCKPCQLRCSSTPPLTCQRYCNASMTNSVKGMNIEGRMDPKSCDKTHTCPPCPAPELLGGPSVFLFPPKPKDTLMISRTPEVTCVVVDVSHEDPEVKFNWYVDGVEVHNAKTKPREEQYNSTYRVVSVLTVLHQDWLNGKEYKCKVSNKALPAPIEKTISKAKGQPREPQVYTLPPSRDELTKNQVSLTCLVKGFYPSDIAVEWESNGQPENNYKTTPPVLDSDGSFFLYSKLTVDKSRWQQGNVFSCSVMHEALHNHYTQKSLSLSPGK
Description: as §2, with “PBST” for “PB ST”, “three mouse BCMA” for “human-mouse chimeric monoclonal”, “7th” for “9th”, “HRP goat anti-mouse” for “mouse anti-human”, “IgG” for “IgG Fc”, “antibody” for “antibody [HRP] mAb”

Binder	IC50 [1]	EC50 [2]	IC50 [3]	EC50 [4]	Kd [5]	koff [5]	kon [5]	EC50 [6]	competition [7]	EC50 [8]	EC50 [9]	EC50 [10]	EC50 [11]	EC50 [12]	EC50 [13]	EC50 [14]
B1	0.0114 µg/mL	0.647 nM	3.16 µg/mL	1.9 nM	0.247 nM	0.00202 s⁻¹	8.18e+06 M⁻¹ s⁻¹	0.00158 nM	70%	7.5 nM	7.5 nM					
B2												24.5 nM	30.9 nM	11.9 nM	0.0492 nM	0.0309 nM
